For one molecule, Nup84-GFP S:N results are on record in US20170212130A1.

This test has as its target S. cerevisiae Nup84-GFP (S. cerevisiae) (UniProt P52891). In words: signal to noise ratio of Coomassie bands, Nup84-GFP affinity isolation on LaG-Dynabeads.

B1: LaG-8 (VHH)
VHH: QVQLVESGGGLVQHGGSLRLSCVTSGFTFDIHDMGWFRQAPGKERDIVARISKSGDITYYADSVKGRFIISRDNTKNTVYLQMNSLKPEDTAVYYCAATLRATITSFDEYVYRGQGTQVTVS
For the molecule B1, the Nup84-GFP S:N was determined as 0.1.
